IntAct's records for PubMed 30262834

B1: Leucine-rich repeat transmembrane neuronal protein 2 (Homo sapiens), O43300 (parent)
chain: MGLHFKWPLGAPMLAAIYAMSMVLKMLPALGMACPPKCRCEKLLFYCDSQGFHSVPNATDKGSLGLSLRHNHITELERDQFASFSQLTWLHLDHNQISTVKEDAFQGLYKLKELILSSNKIFYLPNTTFTQLINLQNLDLSFNQLSSLHPELFYGLRKLQTLHLRSNSLRTIPVRLFWDCRSLEFLDLSTNRLRSLARNGFAGLIKLRELHLEHNQLTKINFAHFLRLSSLHTLFLQWNKISNLTCGMEWTWGTLEKLDLTGNEIKAIDLTVFETMPNLKILLMDNNKLNSLDSKILNSLRSLTTVGLSGNLWECSARICALASWLGSFQGRWEHSILCHSPDHTQGEDILDAVHGFQLCWNLSTTVTVMATTYRDPTTEYTKRISSSSYHVGDKEIPTTAGIAVTTEEHFPEPDNAIFTQRVITGTMALLFSFFFIIFIVFISRKCCPPTLRRIRQCSMVQNHRQLRSQTRLHMSNMSDQGPYNEYEPTHEGPFIIINGYGQCKCQQLPYKECEV

Variants of: B1
Conditions: with NRXN1, P58400-1
Chain of NRXN1, P58400-1 (P58400 other isoform, or with tags, fused parts or gaps): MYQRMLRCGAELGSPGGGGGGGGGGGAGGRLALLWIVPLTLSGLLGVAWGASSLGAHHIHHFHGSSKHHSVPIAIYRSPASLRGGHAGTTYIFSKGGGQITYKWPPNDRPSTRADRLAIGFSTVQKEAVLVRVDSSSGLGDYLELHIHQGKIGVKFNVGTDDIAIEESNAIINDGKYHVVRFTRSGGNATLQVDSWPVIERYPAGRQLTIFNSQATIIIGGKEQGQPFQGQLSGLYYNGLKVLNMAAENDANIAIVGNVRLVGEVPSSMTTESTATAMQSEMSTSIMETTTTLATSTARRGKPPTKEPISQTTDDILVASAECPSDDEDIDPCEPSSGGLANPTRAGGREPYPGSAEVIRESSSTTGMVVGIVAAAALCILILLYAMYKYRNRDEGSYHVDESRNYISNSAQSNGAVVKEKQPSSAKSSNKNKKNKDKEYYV
For E348Q, the “effect of a mutation on the interaction” value was “disrupting interaction strength”.
For R208A, the “effect of a mutation on the interaction” value was “disrupting interaction strength”.
In the case of D352A, the “effect of a mutation on the interaction” value is reported as “decreasing interaction strength”.
H355A was tested, and the “effect of a mutation on the interaction” value was “with no effect”.
In the case of F357A, the “effect of a mutation on the interaction” value is reported as “decreasing interaction strength”.
